# B1: ZEB1: OGT knockdown (protein)
# parent chain: MKVTNYNTVVETNSDSDDEDKLHIVEEESVTDAADCEGVPEDDLPTDQTVLPGRSSEREGNAKNCWEDDTGKEGQEILGPEAQADEAGCTVKDDECESDAENEQNHDPNVEEFLQQQDTAVIFPEAPEEDQRQGTPEASGHDENGTPDAFSQLLTCPYCDRGYKRFTSLKEHIKYRHEKNEDNFSCSLCSYTFAYRTQLERHMTSHKSGRDQRHVTQSGCNRKFKCTECGKAFKYKHHLKEHLRIHSGEKPYECPNCKKRFSHSGSYSSHISSKKCISLIPVNGRPRTGLKTSQCSSPSLSASPGSPTRPQIRQKIENKPLQEQLSVNQIKTEPVDYEFKPIVVASGINCSTPLQNGVFTGGGPLQATSSPQGMVQAVVLPTVGLVSPISINLSDIQNVLKVAVDGNVIRQVLENNQANLASKEQETINASPIQQGGHSVISAISLPLVDQDGTTKIIINYSLEQPSQLQVVPQNLKKENPVATNSCKSEKLPEDLTVKSEKDKSFEGGVNDSTCLLCDDCPGDINALPELKHYDLKQPTQPPPLPAAEAEKPESSVSSATGDGNLSPSQPPLKNLLSLLKAYYALNAQPSAEELSKIADSVNLPLDVVKKWFEKMQAGQISVQSSEPSSPEPGKVNIPAKNNDQPQSANANEPQDSTVNLQSPLKMTNSPVLPVGSTTNGSRSSTPSPSPLNLSSSRNTQGYLYTAEGAQEEPQVEPLDLSLPKQQGELLERSTITSVYQNSVYSVQEEPLNLSCAKKEPQKDSCVTDSEPVVNVIPPSANPINIAIPTVTAQLPTIVAIADQNSVPCLRALAANKQTILIPQVAYTYSTTVSPAVQEPPLKVIQPNGNQDERQDTSSEGVSNVEDQNDSDSTPPKKKMRKTENGMYACDLCDKIFQKSSSLLRHKYEHTGKRPHECGICKKAFKHKHHLIEHMRLHSGEKPYQCDKCGKRFSHSGSYSQHMNHRYSYCKREAEERDSTEQEEAGPEILSNEHVGARASPSQGDSDERESLTREEDEDSEKEEEEEDKEMEELQEEKECEKPQGDEEEEEEEEEVEEEEVEEAENEGEEAKTEGLMKDDRAESQASSLGQKVGESSEQVSEEKTNEA
# B2: ZEB1: BADGP (protein)
# parent chain: B1 parent chain
# B3: ZEB1: sh-OGT (protein)
# parent chain: B1 parent chain
# Columns and labels:
# [1] = nuclear/cytoplasmic fractionation blot and immunofluorescence; settings: glycan lost; control: control cells (sh-CTRL)
# [2] = cycloheximide chase, western blot; settings: glycan lost; control: without BADGP
# western blot = settings: glycan lost; control: untreated
# [3] = western blot, PANC1 and PaTU8988; settings: glycan lost; control: sh-CTRL
protein,measurement,setting,value
B1,localisation_or_trafficking,[1],decreases
B2,degradation_or_half_life,[2],decreases
same,expression_or_secretion,western blot,decreases
B3,expression_or_secretion,[3],decreases

# Source: paper PMC9274488
